Measurements as given in the Human Domainome abundance scans (Beltran et al. 2025).
± gives the uncertainty stated by the source.

B1: Kinesin-like protein KIF16B, residues 1213 to 1273; numbered along this chain, Q96L93 (parent)
chain: ETWTVFRRYSRFREMHKTLKLKYAELAALEFPPKKLFGNKDERVIAERRSHLEKYLRDFFS

Variants of: B1
Test: abundance fitness (aPCA) (normalised: wild type 0, dead -1); higher = more abundant; growth selection in yeast, the domain comes from the species named
Details: Homo sapiens

Row | Variant | abundance fitness
1 | ETWTVFRRYSRFREMHKTLKLKYAELAALEFRPKKLFGNKDERVIAERRSHLEKYLRDFFS [P32R] | 0.139 ± 0.049
2 | ETWTVFRRYSRFREMHKTLKLKYAELAALEFCPKKLFGNKDERVIAERRSHLEKYLRDFFS [P32C] | 0.171 ± 0.075
3 | ETWTVFRRYSRFREMHKTLKLKYAELAALEFAPKKLFGNKDERVIAERRSHLEKYLRDFFS [P32A] | 0.075 ± 0.055
4 | ETWTVFRRYSRFREMHKTLKLKYAELAALEFMPKKLFGNKDERVIAERRSHLEKYLRDFFS [P32M] | 0.191 ± 0.046
5 | ETWTVFRRYSRFREMHKTLKLKYAELAALEFYPKKLFGNKDERVIAERRSHLEKYLRDFFS [P32Y] | -0.691 ± 0.38
6 | ETWTVFRRYSRFREMHKTLKLKYAELAALEFLPKKLFGNKDERVIAERRSHLEKYLRDFFS [P32L] | 0.296 ± 0.056
7 | ETWTVFRRYSRFREMHKTLKLKYAELAALEFKPKKLFGNKDERVIAERRSHLEKYLRDFFS [P32K] | 0.275 ± 0.065
8 | ETWTVFRRYSRFREMHKTLKLKYAELAALEFSPKKLFGNKDERVIAERRSHLEKYLRDFFS [P32S] | 0.159 ± 0.085
9 | ETWTVFRRYSRFREMHKTLKLKYAELAALEFHPKKLFGNKDERVIAERRSHLEKYLRDFFS [P32H] | 0.166 ± 0.47
10 | ETWTVFRRYSRFREMHKTLKLKYAELAALEFQPKKLFGNKDERVIAERRSHLEKYLRDFFS [P32Q] | -0.243 ± 0.081
11 | ETWTVFRRYSRFREMHKTLKLKYAELAALEFTPKKLFGNKDERVIAERRSHLEKYLRDFFS [P32T] | 0.069 ± 0.056
12 | ETWTVFRRYSRFREMHKTLKLKYAELAALEFDPKKLFGNKDERVIAERRSHLEKYLRDFFS [P32D] | -0.082 ± 0.11
13 | ETWTVFRRYSRFREMHKTLKLKYAELAALEFEPKKLFGNKDERVIAERRSHLEKYLRDFFS [P32E] | -0.374 ± 0.086
14 | ETWTVFRRYSRFREMHKTLKLKYAELAALEFWPKKLFGNKDERVIAERRSHLEKYLRDFFS [P32W] | 0.353 ± 0.065
15 | ETWTVFRRYSRFREMHKTLKLKYAELAALEFPPKMLFGNKDERVIAERRSHLEKYLRDFFS [K35M] | -0.36 ± 0.13
16 | ETWTVFRRYSRFREMHKTLKLKYAELAALEFPPKQLFGNKDERVIAERRSHLEKYLRDFFS [K35Q] | -0.233 ± 0.4
17 | ETWTVFRRYSRFREMHKTLKLKYAELAALEFPPKNLFGNKDERVIAERRSHLEKYLRDFFS [K35N] | 0.034 ± 0.12
18 | ETWTVFRRYSRFREMHKTLKLKYAELAALEFPPKELFGNKDERVIAERRSHLEKYLRDFFS [K35E] | -0.786 ± 0.26
19 | ETWTVFRRYSRFREMHKTLKLKYAELAALEFPPKALFGNKDERVIAERRSHLEKYLRDFFS [K35A] | -0.204 ± 0.19
20 | ETWTVFRRYSRFREMHKTLKLKYAELAALEFPPKILFGNKDERVIAERRSHLEKYLRDFFS [K35I] | -0.521 ± 0.23
21 | ETWTVFRRYSRFREMHKTLKLKYAELAALEFPPKSLFGNKDERVIAERRSHLEKYLRDFFS [K35S] | -0.108 ± 0.074
22 | ETWTVFRRYSRFREMHKTLKLKYAELAALEFPPKDLFGNKDERVIAERRSHLEKYLRDFFS [K35D] | -0.717 ± 0.35

Row | Variant | abundance fitness
23 | ETWTVFRRYSRFREMHKTLKLKYAELAALEFPPKGLFGNKDERVIAERRSHLEKYLRDFFS [K35G] | -0.148 ± 0.062
24 | ETWTVFRRYSRFREMHKTLKLKYAELAALEFPPKTLFGNKDERVIAERRSHLEKYLRDFFS [K35T] | -0.585 ± 0.41
25 | ETWTVFRRYSRFREMHKTLKLKYAELAALEFPPKYLFGNKDERVIAERRSHLEKYLRDFFS [K35Y] | -0.073 ± 0.16
26 | ETWTVFRRYSRFREMHKTLKLKYAELAALEFPPKVLFGNKDERVIAERRSHLEKYLRDFFS [K35V] | -0.34 ± 0.12
27 | ETWTVFRRYSRFREMHKTLKLKYAELAALEFPPAKLFGNKDERVIAERRSHLEKYLRDFFS [K34A] | 0.368 ± 0.24
28 | ETWTVFRRYSRFREMHKTLKLKYAELAALEFPPVKLFGNKDERVIAERRSHLEKYLRDFFS [K34V] | 0.06 ± 0.094
29 | ETWTVFRRYSRFREMHKTLKLKYAELAALEFPPKKVFGNKDERVIAERRSHLEKYLRDFFS [L36V] | -0.435 ± 0.085
30 | ETWTVFRRYSRFREMHKTLKLKYAELAALEFPPKKYFGNKDERVIAERRSHLEKYLRDFFS [L36Y] | -0.525 ± 0.21
31 | ETWTVFRRYSRFREMHKTLKLKYAELAALEFPPKKHFGNKDERVIAERRSHLEKYLRDFFS [L36H] | -0.826 ± 0.24
32 | ETWTVFRRYSRFREMHKTLKLKYAELAALEFPPKKMFGNKDERVIAERRSHLEKYLRDFFS [L36M] | -0.586 ± 0.23
33 | ETWTVFRRYSRFREMHKTLKLKYAELAALEFPPKKSFGNKDERVIAERRSHLEKYLRDFFS [L36S] | -0.67 ± 0.15
34 | ETWTVFRRYSRFREMHKTLKLKYAELAALEFPPKKGFGNKDERVIAERRSHLEKYLRDFFS [L36G] | -0.658 ± 0.099
35 | ETWTVFRRYSRFREMHKTLKLKYAELAALEFPPKKKFGNKDERVIAERRSHLEKYLRDFFS [L36K] | -0.463 ± 0.14
36 | ETWTVFRRYSRFREMHKTLKLKYAELAALEFPPKKPFGNKDERVIAERRSHLEKYLRDFFS [L36P] | -0.317 ± 0.15
37 | ETWTVFRRYSRFREMHKTLKLKYAELAALEFPPKKFFGNKDERVIAERRSHLEKYLRDFFS [L36F] | -0.02 ± 0.31
38 | ETWTVFRRYSRFREMHKTLKLKYAELAALEFPPKKRFGNKDERVIAERRSHLEKYLRDFFS [L36R] | -0.634 ± 0.1
39 | ETWTVFRRYSRFREMHKTLKLKYAELAALEFPPKKDFGNKDERVIAERRSHLEKYLRDFFS [L36D] | -0.596 ± 0.3
40 | ETWTVFRRYSRFREMHKTLKLKYAELAALEFPPKKAFGNKDERVIAERRSHLEKYLRDFFS [L36A] | -0.41 ± 0.11
41 | ETWTVFRRYSRFREMHKTLKLKYAELAALEFPPKKTFGNKDERVIAERRSHLEKYLRDFFS [L36T] | -0.453 ± 0.13
42 | ETWTVFRRYSRFREMHKTLKLKYAELAALEFPPKKEFGNKDERVIAERRSHLEKYLRDFFS [L36E] | -0.592 ± 0.1
43 | ETWTVFRRYSRFREMHKTLKLKYAELAALEFPPKKWFGNKDERVIAERRSHLEKYLRDFFS [L36W] | 0.27 ± 0.088
44 | ETWTVFRRYSRFREMHKTLKLKYAELAALEFPPKKQFGNKDERVIAERRSHLEKYLRDFFS [L36Q] | -0.976 ± 0.37
